This note sets out measurements from article PMC5452337.

What all share (assay): co-IP; lysates of CHO GABABR1b/R2 cells transiently expressing KCC2-GFP constructs or GFP, CHAPS buffer; anti-GFP as the precipitating antibody; blots probed for GABABR1 (quantified against FL-KCC2 = 100%) or transferrin receptor
Test [1] has as its target KCC2 deletion mutant NTD + TMD fused to GFP (rat).
The target in test [2] is KCC2 deletion mutant TMD + CTD fused to GFP (rat).
The target in test [3] is KCC2 transmembrane domain (TMD) fused to GFP (rat).
KCC2 transmembrane domain (TMD) fused to GFP (rat), sequence (Q63633 97-640): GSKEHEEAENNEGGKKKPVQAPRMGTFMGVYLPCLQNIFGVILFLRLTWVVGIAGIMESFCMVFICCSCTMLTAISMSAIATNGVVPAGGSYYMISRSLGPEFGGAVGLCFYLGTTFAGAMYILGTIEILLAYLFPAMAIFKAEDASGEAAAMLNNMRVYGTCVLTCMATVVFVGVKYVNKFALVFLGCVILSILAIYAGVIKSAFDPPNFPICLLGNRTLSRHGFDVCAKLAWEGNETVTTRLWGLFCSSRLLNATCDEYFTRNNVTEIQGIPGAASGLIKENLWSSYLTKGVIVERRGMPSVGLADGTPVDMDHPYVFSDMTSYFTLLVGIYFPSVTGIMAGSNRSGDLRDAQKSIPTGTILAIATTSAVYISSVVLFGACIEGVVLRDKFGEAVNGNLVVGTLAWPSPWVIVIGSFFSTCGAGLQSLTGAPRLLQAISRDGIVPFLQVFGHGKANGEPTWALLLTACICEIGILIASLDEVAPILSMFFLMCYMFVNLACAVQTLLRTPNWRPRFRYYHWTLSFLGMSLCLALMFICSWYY

KCC2 deletion mutant NTD + TMD fused to GFP (rat), sequence (Q63633 1-640, stated change not applied): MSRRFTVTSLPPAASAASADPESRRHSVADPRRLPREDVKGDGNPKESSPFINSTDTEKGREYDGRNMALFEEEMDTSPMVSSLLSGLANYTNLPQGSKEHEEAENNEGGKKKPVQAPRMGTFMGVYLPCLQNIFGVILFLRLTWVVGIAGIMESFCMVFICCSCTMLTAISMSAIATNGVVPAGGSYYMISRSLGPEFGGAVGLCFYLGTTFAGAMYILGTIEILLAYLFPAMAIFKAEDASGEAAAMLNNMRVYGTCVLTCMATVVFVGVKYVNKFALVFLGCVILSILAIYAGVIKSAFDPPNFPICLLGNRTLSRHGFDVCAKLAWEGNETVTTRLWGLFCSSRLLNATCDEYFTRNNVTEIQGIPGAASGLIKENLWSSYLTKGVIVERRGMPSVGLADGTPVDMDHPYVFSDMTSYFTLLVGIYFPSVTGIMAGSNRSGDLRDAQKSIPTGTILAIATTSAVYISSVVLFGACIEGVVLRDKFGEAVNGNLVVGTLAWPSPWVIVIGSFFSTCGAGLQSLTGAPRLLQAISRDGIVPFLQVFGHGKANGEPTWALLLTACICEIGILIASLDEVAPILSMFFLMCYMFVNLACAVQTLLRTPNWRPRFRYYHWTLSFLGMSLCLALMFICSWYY
KCC2 deletion mutant TMD + CTD fused to GFP (rat), sequence (Q63633 whole entry, stated change not applied, the tested form may be a part): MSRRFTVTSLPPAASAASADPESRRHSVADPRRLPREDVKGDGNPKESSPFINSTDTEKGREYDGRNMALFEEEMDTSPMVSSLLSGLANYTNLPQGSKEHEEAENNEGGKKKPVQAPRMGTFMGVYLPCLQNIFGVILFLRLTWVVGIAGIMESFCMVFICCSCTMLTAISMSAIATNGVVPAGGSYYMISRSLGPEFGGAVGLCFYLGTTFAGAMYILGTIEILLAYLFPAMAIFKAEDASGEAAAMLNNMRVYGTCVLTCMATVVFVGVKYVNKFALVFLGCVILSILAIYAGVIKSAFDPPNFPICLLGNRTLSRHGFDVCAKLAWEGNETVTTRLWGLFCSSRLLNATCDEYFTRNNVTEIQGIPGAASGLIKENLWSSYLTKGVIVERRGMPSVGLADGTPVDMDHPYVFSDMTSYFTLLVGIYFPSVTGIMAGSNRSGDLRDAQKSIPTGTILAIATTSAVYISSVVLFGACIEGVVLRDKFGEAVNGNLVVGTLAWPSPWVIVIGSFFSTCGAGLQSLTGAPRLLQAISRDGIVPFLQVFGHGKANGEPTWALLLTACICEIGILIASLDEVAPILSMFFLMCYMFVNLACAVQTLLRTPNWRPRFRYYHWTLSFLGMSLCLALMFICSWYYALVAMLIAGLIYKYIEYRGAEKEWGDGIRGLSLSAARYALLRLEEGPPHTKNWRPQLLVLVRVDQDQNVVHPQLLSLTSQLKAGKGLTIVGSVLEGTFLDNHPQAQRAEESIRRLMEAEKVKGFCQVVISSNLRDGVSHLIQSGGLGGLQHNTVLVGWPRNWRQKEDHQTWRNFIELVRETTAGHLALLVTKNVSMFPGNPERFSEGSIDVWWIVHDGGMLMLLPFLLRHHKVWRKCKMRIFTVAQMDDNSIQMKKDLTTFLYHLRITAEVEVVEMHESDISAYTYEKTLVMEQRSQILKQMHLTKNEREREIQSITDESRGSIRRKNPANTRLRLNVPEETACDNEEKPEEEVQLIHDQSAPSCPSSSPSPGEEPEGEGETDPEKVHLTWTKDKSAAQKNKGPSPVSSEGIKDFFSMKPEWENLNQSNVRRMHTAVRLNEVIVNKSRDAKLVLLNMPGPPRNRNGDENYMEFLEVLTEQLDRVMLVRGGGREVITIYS

In the case of “GABAB receptor of rat GABABR1b and GABABR2, stably expressed in CHO cells (from UniProt Q9Z0U4-2 20-960; O88871 41-940) (complex)”, the relative amount of GABABR detected after isolation with the GFP antibody (FL-KCC2 = 100%) in test [1] is 68 % of FL-KCC2; in test [2], 36 % of FL-KCC2; in test [3], 76 % of FL-KCC2.
